In patent US10941182 (Amgen, dated 2021):
Starred links: 1 amine or outer side, 2 acyl side, 3 side chain; linkers in the order of their positions; H or OH if unused. Non-standard residues stand in square brackets, D forms with d. rCha = cyclohexylalanine with ψ(CH2NH) reduced amide bond, C1CCC(C[C@@H](C[*:2])N[*:1])CC1; rhArg = homoarginine with ψ(CH2NH) reduced amide bond, N=C(N)NCCCC[C@@H](C[*:2])N[*:1]; rHis = histidine with ψ(CH2NH) reduced amide bond, c1nc(C[C@@H](C[*:2])N[*:1])c[nH]1; rLys = lysine with ψ(CH2NH) reduced amide bond, C(CC[C@@H](C[*:2])N[*:1])CN[*:3]; DrSer = D-serine with ψ(CH2NH) reduced amide bond, C(O[*:3])[C@H](C[*:2])N[*:1]; rSer = serine with ψ(CH2NH) reduced amide bond, C(O[*:3])[C@@H](C[*:2])N[*:1]; dBip = N[C@H](Cc1ccc(-c2ccccc2)cc1)C(=O)O; Oic = O=C(O)[C@@H]1C[C@@H]2CCCC[C@@H]2N1; Phe(4-Cl) = N[C@@H](Cc1ccc(Cl)cc1)C(=O)O; dPhe(4-Cl) = N[C@H](Cc1ccc(Cl)cc1)C(=O)O; Phe(4-I) = N[C@@H](Cc1ccc(I)cc1)C(=O)O; 2Nal = N[C@@H](Cc1ccc2ccccc2c1)C(=O)O; d1Nal = N[C@H](Cc1cccc2ccccc12)C(=O)O; NMeR = CN[C@@H](CCCNC(=N)N)C(=O)O; hArg = N=C(N)NCCCC[C@H](N)C(=O)O; Cha = N[C@@H](CC1CCCCC1)C(=O)O; NMeL = CN[C@@H](CC(C)C)C(=O)O; Nle = CCCC[C@H](N)C(=O)O; Orn = NCCC[C@H](N)C(=O)O

T1: rat APJ receptor (rat, UniProt Q9JHG3 1-377)
T1 sequence (looked up): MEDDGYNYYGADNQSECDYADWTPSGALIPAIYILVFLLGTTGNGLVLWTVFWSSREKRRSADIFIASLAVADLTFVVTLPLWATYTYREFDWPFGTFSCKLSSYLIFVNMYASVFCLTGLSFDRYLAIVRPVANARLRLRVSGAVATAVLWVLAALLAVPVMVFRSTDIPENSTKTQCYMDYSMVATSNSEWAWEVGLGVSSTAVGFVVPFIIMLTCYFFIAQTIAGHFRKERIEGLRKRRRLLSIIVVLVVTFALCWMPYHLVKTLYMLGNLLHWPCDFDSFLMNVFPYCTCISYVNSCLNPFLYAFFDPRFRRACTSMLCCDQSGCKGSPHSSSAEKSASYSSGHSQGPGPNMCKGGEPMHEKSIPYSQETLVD

T2: human APJ receptor (human, UniProt P35414 1-380)
T2 sequence (looked up): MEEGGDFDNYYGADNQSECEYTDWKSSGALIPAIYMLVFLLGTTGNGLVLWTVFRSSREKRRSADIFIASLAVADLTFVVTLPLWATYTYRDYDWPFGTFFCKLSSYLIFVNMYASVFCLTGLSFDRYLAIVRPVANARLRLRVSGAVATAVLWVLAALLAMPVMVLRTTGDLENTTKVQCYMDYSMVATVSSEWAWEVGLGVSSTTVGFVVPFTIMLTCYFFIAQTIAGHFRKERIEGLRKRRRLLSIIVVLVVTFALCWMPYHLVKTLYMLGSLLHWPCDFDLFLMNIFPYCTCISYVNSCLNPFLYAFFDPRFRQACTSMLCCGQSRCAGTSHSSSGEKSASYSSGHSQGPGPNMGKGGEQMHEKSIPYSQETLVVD

B1: apelin polypeptide SEQ ID NO: 52 (peptide)
peptide: Ac-[dR]QRP[hArg][NMeL]SHKG[Oic][Phe(4-I)]P[dBip]-OH
SMILES: CC(=O)N[C@H](CCCNC(=N)N)C(=O)N[C@@H](CCC(N)=O)C(=O)N[C@@H](CCCNC(=N)N)C(=O)N1CCC[C@H]1C(=O)N[C@@H](CCCCNC(=N)N)C(=O)N(C)[C@@H](CC(C)C)C(=O)N[C@@H](CO)C(=O)N[C@@H](Cc1c[nH]cn1)C(=O)N[C@@H](CCCCN)C(=O)NCC(=O)N1[C@H](C(=O)N[C@@H](Cc2ccc(I)cc2)C(=O)N2CCC[C@H]2C(=O)N[C@H](Cc2ccc(-c3ccccc3)cc2)C(=O)O)C[C@@H]2CCCC[C@@H]21
B2: apelin polypeptide SEQ ID NO: 55 (peptide)
peptide: Ac-[dQ][hArg]P[NMeR][Cha]SHKG[Oic][Nle]P[dPhe(4-Cl)]-OH
SMILES: CCCC[C@H](NC(=O)[C@@H]1C[C@@H]2CCCC[C@@H]2N1C(=O)CNC(=O)[C@H](CCCCN)NC(=O)[C@H](Cc1c[nH]cn1)NC(=O)[C@H](CO)NC(=O)[C@H](CC1CCCCC1)NC(=O)[C@H](CCCNC(=N)N)N(C)C(=O)[C@@H]1CCCN1C(=O)[C@H](CCCCNC(=N)N)NC(=O)[C@@H](CCC(N)=O)NC(C)=O)C(=O)N1CCC[C@H]1C(=O)N[C@H](Cc1ccc(Cl)cc1)C(=O)O
B3: apelin polypeptide SEQ ID NO: 54 (peptide)
peptide: Ac-Q[dR]P[NMeR][Cha]SHKG[Oic][Nle][d1Nal]-OH
SMILES: CCCC[C@H](NC(=O)[C@@H]1C[C@@H]2CCCC[C@@H]2N1C(=O)CNC(=O)[C@H](CCCCN)NC(=O)[C@H](Cc1c[nH]cn1)NC(=O)[C@H](CO)NC(=O)[C@H](CC1CCCCC1)NC(=O)[C@H](CCCNC(=N)N)N(C)C(=O)[C@@H]1CCCN1C(=O)[C@@H](CCCNC(=N)N)NC(=O)[C@H](CCC(N)=O)NC(C)=O)C(=O)N[C@H](Cc1cccc2ccccc12)C(=O)O
B4: apelin polypeptide SEQ ID NO: 48 (peptide)
peptide: Ac-[Orn]F[hArg][hArg]QRP[hArg][Cha]SHKGP[Nle][Phe(4-Cl)]-OH
SMILES: CCCC[C@H](NC(=O)[C@@H]1CCCN1C(=O)CNC(=O)[C@H](CCCCN)NC(=O)[C@H](Cc1c[nH]cn1)NC(=O)[C@H](CO)NC(=O)[C@H](CC1CCCCC1)NC(=O)[C@H](CCCCNC(=N)N)NC(=O)[C@@H]1CCCN1C(=O)[C@H](CCCNC(=N)N)NC(=O)[C@H](CCC(N)=O)NC(=O)[C@H](CCCCNC(=N)N)NC(=O)[C@H](CCCCNC(=N)N)NC(=O)[C@H](Cc1ccccc1)NC(=O)[C@H](CCCN)NC(C)=O)C(=O)N[C@@H](Cc1ccc(Cl)cc1)C(=O)O
B5: apelin polypeptide SEQ ID NO: 46 (peptide)
peptide: Ac-[Orn]F[hArg][hArg]QRP[hArg][Cha]SHKGP[Phe(4-I)]P[dBip]-OH
SMILES: CC(=O)N[C@@H](CCCN)C(=O)N[C@@H](Cc1ccccc1)C(=O)N[C@@H](CCCCNC(=N)N)C(=O)N[C@@H](CCCCNC(=N)N)C(=O)N[C@@H](CCC(N)=O)C(=O)N[C@@H](CCCNC(=N)N)C(=O)N1CCC[C@H]1C(=O)N[C@@H](CCCCNC(=N)N)C(=O)N[C@@H](CC1CCCCC1)C(=O)N[C@@H](CO)C(=O)N[C@@H](Cc1c[nH]cn1)C(=O)N[C@@H](CCCCN)C(=O)NCC(=O)N1CCC[C@H]1C(=O)N[C@@H](Cc1ccc(I)cc1)C(=O)N1CCC[C@H]1C(=O)N[C@H](Cc1ccc(-c2ccccc2)cc1)C(=O)O
B6: apelin polypeptide SEQ ID NO: 47 (peptide)
peptide: Ac-[Orn]F[hArg][hArg]QRP[hArg][NMeL]SHKG[Oic][Phe(4-I)]P[dBip]-OH
SMILES: CC(=O)N[C@@H](CCCN)C(=O)N[C@@H](Cc1ccccc1)C(=O)N[C@@H](CCCCNC(=N)N)C(=O)N[C@@H](CCCCNC(=N)N)C(=O)N[C@@H](CCC(N)=O)C(=O)N[C@@H](CCCNC(=N)N)C(=O)N1CCC[C@H]1C(=O)N[C@@H](CCCCNC(=N)N)C(=O)N(C)[C@@H](CC(C)C)C(=O)N[C@@H](CO)C(=O)N[C@@H](Cc1c[nH]cn1)C(=O)N[C@@H](CCCCN)C(=O)NCC(=O)N1[C@H](C(=O)N[C@@H](Cc2ccc(I)cc2)C(=O)N2CCC[C@H]2C(=O)N[C@H](Cc2ccc(-c3ccccc3)cc2)C(=O)O)C[C@@H]2CCCC[C@@H]21
B7: apelin polypeptide SEQ ID NO: 49 (peptide)
peptide: Ac-[Orn]F[hArg][hArg]QRP[hArg][Cha]SHKGP[Nle][2Nal]-OH
SMILES: CCCC[C@H](NC(=O)[C@@H]1CCCN1C(=O)CNC(=O)[C@H](CCCCN)NC(=O)[C@H](Cc1c[nH]cn1)NC(=O)[C@H](CO)NC(=O)[C@H](CC1CCCCC1)NC(=O)[C@H](CCCCNC(=N)N)NC(=O)[C@@H]1CCCN1C(=O)[C@H](CCCNC(=N)N)NC(=O)[C@H](CCC(N)=O)NC(=O)[C@H](CCCCNC(=N)N)NC(=O)[C@H](CCCCNC(=N)N)NC(=O)[C@H](Cc1ccccc1)NC(=O)[C@H](CCCN)NC(C)=O)C(=O)N[C@@H](Cc1ccc2ccccc2c1)C(=O)O
B8: apelin polypeptide SEQ ID NO: 57 (peptide)
peptide: Ac-[Orn]F[hArg][hArg]Q[hArg]P[NMeR][Cha]SHKG[Oic][Nle][Phe(4-Cl)]-OH
SMILES: CCCC[C@H](NC(=O)[C@@H]1C[C@@H]2CCCC[C@@H]2N1C(=O)CNC(=O)[C@H](CCCCN)NC(=O)[C@H](Cc1c[nH]cn1)NC(=O)[C@H](CO)NC(=O)[C@H](CC1CCCCC1)NC(=O)[C@H](CCCNC(=N)N)N(C)C(=O)[C@@H]1CCCN1C(=O)[C@H](CCCCNC(=N)N)NC(=O)[C@H](CCC(N)=O)NC(=O)[C@H](CCCCNC(=N)N)NC(=O)[C@H](CCCCNC(=N)N)NC(=O)[C@H](Cc1ccccc1)NC(=O)[C@H](CCCN)NC(C)=O)C(=O)N[C@@H](Cc1ccc(Cl)cc1)C(=O)O

What was measured:
rat APJ receptor = molecular target: T1, rat APJ receptor; test: cell-based or functional assay
human APJ receptor = molecular target: T2, human APJ receptor; test: cell-based or functional assay

| Binder | EC50 Rat APJ Receptor (rat APJ receptor) | EC50 Human APJ Receptor (human APJ receptor) |
| --- | --- | --- |
| B1 | 1.14 nM | 623 pM |
| Ac-RQRP[hArg][NMeL]SHKG[Oic][Phe(4-I)]P[dBip]-OH [apelin polypeptide SEQ ID NO: 51] | 1.26 nM | 370 pM |
| B2 | 145 nM | 31600 pM |
| B3 | 312 nM | 30100 pM |
| B4 | 0.486 nM | 287 pM |
| Ac-[Orn]F[hArg][hArg]Q[hArg]P[hArg][rCha]SHKG[Oic][Nle]P[Phe(4-Cl)]-OH (also: reduced amide bond (CH2NH) at residue 9) [apelin polypeptide SEQ ID NO: 42] | 0.247 nM | 44.9 pM |
| Ac-[Orn]F[hArg][hArg]Q[hArg]P[hArg][Cha]SH[rLys]G[Oic][Nle]P[Phe(4-Cl)]-OH (also: reduced amide bond (CH2NH) at residue 12) [apelin polypeptide SEQ ID NO: 41] | 0.817 nM | 151 pM |
| Ac-[Orn]F[hArg][hArg]Q[hArg]P[hArg][Cha][DrSer]HKG[Oic][Nle]P[Phe(4-Cl)]-OH (also: reduced amide bond at D-Ser10 (DrSer)) [apelin polypeptide SEQ ID NO: 44] | 3.79 nM | 997 pM |
| B5 | 1.04 nM | 390 pM |
| B6 | 0.63 nM | 416 pM |
| B7 | 0.291 nM | 159 pM |
| B8 | 0.787 nM | 412 pM |
| QRPRLSHKGXFPX ({Acetyl-NH}Q[hArg]Pr[NMeLeu]SHKG[Oic][pI-Phe]P[D-Bip]{COOH}) [apelin polypeptide SEQ ID NO: 53] | 5.98 nM | 5180 pM |
| Ac-[dR]Q[hArg]P[dR][NMeL]SHKG[Oic][Phe(4-I)]P[dBip]-OH [apelin polypeptide SEQ ID NO: 50] | 1.68 nM | 1430 pM |
| Ac-[Orn]F[hArg][hArg]Q[hArg]P[hArg][Cha][rSer]HKG[Oic][Nle]P[Phe(4-Cl)]-OH (also: reduced amide bond at Ser10 (rSer)) [apelin polypeptide SEQ ID NO: 43] | 1.83 nM | 393 pM |
| Ac-[Orn]F[hArg][hArg]Q[hArg]P[hArg][Cha]S[rHis]KG[Oic][Nle]P[Phe(4-Cl)]-OH (also: reduced amide bond (CH2NH) at residue 11) [apelin polypeptide SEQ ID NO: 40] | 1.45 nM | 234 pM |
| Ac-[Orn]F[hArg][hArg]Q[hArg]P[rhArg][Cha]SHKG[Oic][Nle]P[Phe(4-Cl)]-OH (also: reduced amide bond (CH2NH) at residue 8) [apelin polypeptide SEQ ID NO: 39] | 0.323 nM | 253 pM |
| Ac-[Orn]F[hArg][hArg]Q[rhArg]P[hArg][Cha]SHKG[Oic][Nle]P[Phe(4-Cl)]-OH (also: reduced amide bond (CH2NH) at residue 6) [apelin polypeptide SEQ ID NO: 38] | 1.3 nM | 86.9 pM |
